Read-outs that look alike come from different tables or passages of the source.

Experiment [1] concerns the target C1q. Kind of experiment: SPR (BIAcore): 2B6 antibody captured on soluble CD32B (2bLAvi) on a CM-5 chip, C1q injected in a dilution series. (SPR reads the build-up and loss of mass on a sensor chip optically.)
In experiment [2] the target is C1q. Kind of experiment: SPR (BIAcore): 2B6 antibody captured on soluble CD32B (2bLAvi) on a CM-5 chip, C1q injected at 0.8-26 nM.
Experiment [3] has as its target FcγRIIB-Fc fusion protein (soluble dimeric FcγRIIB) (human) (UniProt P31994). Description: BIAcore, separate fits at two concentrations of FcγRIIB-Fc, average (Table 18 prints 0.085).
For experiment [4] the target is unchanged. Kind of experiment: SPR.
Experiment [5] concerns the target soluble monomeric FcγRIIIA-linker-AVITAG (158V), biotinylated (human) (UniProt P08637). Description: SPR.
Target sequence in this assay (P08637 17-203 F176V limits assumed, form in doubt): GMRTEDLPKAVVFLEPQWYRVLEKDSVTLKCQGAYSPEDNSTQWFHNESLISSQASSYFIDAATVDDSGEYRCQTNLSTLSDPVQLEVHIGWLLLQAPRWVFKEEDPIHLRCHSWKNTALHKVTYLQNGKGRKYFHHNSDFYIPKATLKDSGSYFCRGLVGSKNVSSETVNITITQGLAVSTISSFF
Experiment [6] deals with FcγRIIB-Fc fusion protein (soluble dimeric FcγRIIB) (human) (UniProt P31994). Description: SPR. The source holds these as a separate data set.
Sequence of FcγRIIB-Fc fusion protein (soluble dimeric FcγRIIB) (human) (P31994 43-217): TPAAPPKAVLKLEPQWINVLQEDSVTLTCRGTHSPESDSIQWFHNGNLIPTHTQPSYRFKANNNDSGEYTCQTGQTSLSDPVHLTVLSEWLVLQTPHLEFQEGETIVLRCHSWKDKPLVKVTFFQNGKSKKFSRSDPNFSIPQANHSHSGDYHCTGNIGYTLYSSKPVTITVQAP
For experiment [7] the target is unchanged. Kind of experiment: ELISA. In general terms: ELISA stands for enzyme-linked immunosorbent assay.
The target in experiment [8] is soluble monomeric FcγRIIIA-linker-AVITAG (158V), biotinylated (human) (UniProt P08637). Kind of experiment: ELISA.
Experiment [9] deals with monomeric human IgG. Kind of experiment: ELISA: plate coated with human IgG, receptor titrated, detection with DJ130c and anti-mouse peroxidase.
The target in experiment [10] is yeast-displayed wild type CH1-CH3 Fc fusion (pYD-CH1) (human) [IgG part: P01857]. Kind of experiment: FACS titration on yeast, MFI, nonlinear regression.

Sequence of C1q (P02745 23-245, chain 1 of 3): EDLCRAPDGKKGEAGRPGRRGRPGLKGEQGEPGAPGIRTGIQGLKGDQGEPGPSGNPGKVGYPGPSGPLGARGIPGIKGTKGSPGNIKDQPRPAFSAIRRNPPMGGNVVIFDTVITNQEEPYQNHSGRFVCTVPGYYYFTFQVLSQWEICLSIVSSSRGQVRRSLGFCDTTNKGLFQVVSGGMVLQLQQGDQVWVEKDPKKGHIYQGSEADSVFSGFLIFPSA
Sequence of C1q (P02746 28-253, chain 2 of 3, further chain): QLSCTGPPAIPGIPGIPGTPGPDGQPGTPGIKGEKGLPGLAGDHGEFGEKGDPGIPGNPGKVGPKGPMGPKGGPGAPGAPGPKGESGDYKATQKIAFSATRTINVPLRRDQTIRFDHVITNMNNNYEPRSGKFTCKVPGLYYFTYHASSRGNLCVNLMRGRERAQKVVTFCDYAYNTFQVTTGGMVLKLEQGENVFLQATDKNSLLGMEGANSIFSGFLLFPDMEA
Sequence of C1q (P02747 29-245, chain 3 of 3, further chain): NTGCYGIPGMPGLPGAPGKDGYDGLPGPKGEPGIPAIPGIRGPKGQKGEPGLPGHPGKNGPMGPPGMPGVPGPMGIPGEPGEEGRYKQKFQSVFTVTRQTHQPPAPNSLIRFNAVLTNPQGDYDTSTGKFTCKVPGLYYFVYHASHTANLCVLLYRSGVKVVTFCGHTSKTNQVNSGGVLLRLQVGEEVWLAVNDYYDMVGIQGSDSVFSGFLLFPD

For “2B6 (lower panel of FIG. 36B, Fc region not labelled) (antibody)”, in [1], the equilibrium dissociation constant (Kd) came out at 7 nM and the koff turned out to be 0.06 s⁻¹.

In experiment [2], “2B6 (upper panel of FIG. 36B, Fc region not labelled) (antibody)” registered an off-rate (koff) of 0.13 s⁻¹.

In the case of “chimeric 4-4-20 anti-fluorescein antibody, wild type Fc”, the koff in experiment [3] was 0.0847 s⁻¹; in [4], 0.094 s⁻¹; in [6], 0.085 s⁻¹. Moreover, the values for the Kd in experiment [4], in experiment [5] and in experiment [6] were 94 nM, 319 nM and 61.4 nM, respectively. The same substance yielded an on-rate (kon) in experiment [5] of 600000 M⁻¹ s⁻¹. Also, the ELISA, OD in experiment [7] stood at 0.4 OD; in [8] it was 0.5 OD.

For the substance “ch4-4-20 K392T, P396L (from UniProt P01857 1-330) (antibody)”, the Kd in experiment [5] came out at 84 nM.

On to “soluble FcγRIIIA tetrameric complex (from UniProt P08637 1-203) (receptor)”, for which the EC50 (read off the curve) in [9] stood at 1 µg/mL. The same substance yielded a Kd in [10] of 6 nM.

ch4-4-20 S415I, L251F (antibody): the fold vs wt in [7] was 0.75 x increase; in [8], 0.5 x increase.

In general, Kd refers to the equilibrium constant for the complex coming apart. The low end stands for tighter binding, the high end for weaker binding. A word on the koff: it is the first-order rate constant of dissociation. Low readings indicate slow dissociation, high ones fast dissociation. In general, kon refers to the second-order rate constant of association. As usually defined, the EC50 (read off the curve) is the midpoint of the concentration-response curve. A high value points to a less potent agent.

The record behind these values is patent publication US20070036799A1.
